{"source": "patent US20260097149A1", "about": "(RESEARCH FOUNDATION FOR THE STATE UNIVERSITY OF NEW YORK, published 2026)", "binders": {"B1": {"name": "H2R5 fusion protein, H2-(GGGS-…)5 (designed binder)", "chain": "MGSSHHHHHHSSGLVPRGSHMASMTGGQQMGRGSAIPAPTDLKFTQGTPTSLSAQWTPPNVQLTGYRVRVTPKEKTGPMKEINLAPDSSSVVVSGLMVATKYEVSVYALKDTLTSRPAQGVVTTLENVSPPRRARVTDATETTITISWRTKTETITGFQVDAVPANGQTPIQRTIKPDVRSYTITGLQPGTDYKIYLYTLNDNARSSPVVIDASTAIDAPSNLRFLATTPNSLLVSWQPPRARITGYIIKYEKPGSPPREVVPRPRPGVTEATITGLEPGTEYTIYVIALKNNQKSEPLIGHKLGGGGSHIPREDVDYHGGGGSHIPREDVDYHGGGGSHIPREDVDYHGGGGSHIPREDVDYHGGGGSHIPREDVDYHLEHHHHHH", "notes": "no residue limits are stated; also called fusion peptide (H2R5); His tagged fusion protein"}}, "target": "T1, integrin α4β1 (human, UniProt P13612 34-1032; P05556 21-798)", "T1 construct": "whole, on cells; Present on human PBMNC isolated from blood and on HUVEC; also called α4β1 integrin; CD49d (α4β1 integrin)", "T1 sequence (P13612 34-1032, chain 1 of 2)": "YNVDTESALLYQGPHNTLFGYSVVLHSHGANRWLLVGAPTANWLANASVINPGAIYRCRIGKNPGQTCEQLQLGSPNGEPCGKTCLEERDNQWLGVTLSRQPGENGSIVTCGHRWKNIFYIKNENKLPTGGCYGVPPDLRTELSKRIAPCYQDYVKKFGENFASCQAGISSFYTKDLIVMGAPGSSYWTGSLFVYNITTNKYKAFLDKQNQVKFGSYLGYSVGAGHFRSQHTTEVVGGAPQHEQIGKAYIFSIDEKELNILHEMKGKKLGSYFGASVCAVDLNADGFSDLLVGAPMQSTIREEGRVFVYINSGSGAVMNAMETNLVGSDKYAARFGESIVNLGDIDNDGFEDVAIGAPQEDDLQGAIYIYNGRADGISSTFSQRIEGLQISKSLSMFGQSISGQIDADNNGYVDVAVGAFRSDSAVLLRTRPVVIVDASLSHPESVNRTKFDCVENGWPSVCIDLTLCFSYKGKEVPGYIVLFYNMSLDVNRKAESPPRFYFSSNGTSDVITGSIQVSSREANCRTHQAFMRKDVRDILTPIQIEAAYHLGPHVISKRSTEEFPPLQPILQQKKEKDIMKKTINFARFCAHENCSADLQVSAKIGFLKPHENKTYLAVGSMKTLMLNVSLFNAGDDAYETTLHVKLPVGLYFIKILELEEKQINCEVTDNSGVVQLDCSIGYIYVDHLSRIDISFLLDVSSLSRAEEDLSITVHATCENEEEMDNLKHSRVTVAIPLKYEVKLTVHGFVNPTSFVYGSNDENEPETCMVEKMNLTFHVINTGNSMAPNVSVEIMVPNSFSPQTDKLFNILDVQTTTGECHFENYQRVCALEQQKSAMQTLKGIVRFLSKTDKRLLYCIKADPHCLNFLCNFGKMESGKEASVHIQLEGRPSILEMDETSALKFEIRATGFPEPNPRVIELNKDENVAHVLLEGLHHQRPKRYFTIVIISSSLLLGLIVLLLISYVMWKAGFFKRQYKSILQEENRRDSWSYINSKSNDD", "T1 sequence (P05556 21-798, chain 2 of 2)": "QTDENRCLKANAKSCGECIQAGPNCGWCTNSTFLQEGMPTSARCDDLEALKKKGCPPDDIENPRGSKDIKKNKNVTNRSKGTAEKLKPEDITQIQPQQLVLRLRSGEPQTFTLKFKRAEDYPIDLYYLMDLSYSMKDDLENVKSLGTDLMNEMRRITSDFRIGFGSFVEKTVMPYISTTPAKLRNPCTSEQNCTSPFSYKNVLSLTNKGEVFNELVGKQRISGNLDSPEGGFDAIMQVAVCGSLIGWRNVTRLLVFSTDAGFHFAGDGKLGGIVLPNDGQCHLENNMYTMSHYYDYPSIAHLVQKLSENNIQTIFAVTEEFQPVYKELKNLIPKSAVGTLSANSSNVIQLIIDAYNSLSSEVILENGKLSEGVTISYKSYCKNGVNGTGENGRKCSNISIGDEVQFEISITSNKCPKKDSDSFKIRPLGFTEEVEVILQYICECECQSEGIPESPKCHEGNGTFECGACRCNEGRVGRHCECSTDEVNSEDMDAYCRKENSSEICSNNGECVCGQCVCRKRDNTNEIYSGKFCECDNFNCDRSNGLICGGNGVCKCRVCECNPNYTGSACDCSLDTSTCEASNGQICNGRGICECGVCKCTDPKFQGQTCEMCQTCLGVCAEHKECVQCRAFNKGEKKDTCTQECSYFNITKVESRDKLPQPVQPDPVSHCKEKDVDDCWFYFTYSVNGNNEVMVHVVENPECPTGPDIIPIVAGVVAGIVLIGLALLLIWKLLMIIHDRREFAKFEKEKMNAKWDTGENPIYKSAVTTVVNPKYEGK", "assay": "capture of PBMNC on immobilised H2R5 against blocking antibody and heparin-only control"}
{"binder": "B1", "values": [{"measurement": "binding result", "value": "binds"}]}
